T1: GST-PDK1 (Homo sapiens, UniProt O15530)
T1 construct: Full length PDK1 (residues 1-556); made in house; host or cells: 293 cells
T1 sequence (O15530 1-556): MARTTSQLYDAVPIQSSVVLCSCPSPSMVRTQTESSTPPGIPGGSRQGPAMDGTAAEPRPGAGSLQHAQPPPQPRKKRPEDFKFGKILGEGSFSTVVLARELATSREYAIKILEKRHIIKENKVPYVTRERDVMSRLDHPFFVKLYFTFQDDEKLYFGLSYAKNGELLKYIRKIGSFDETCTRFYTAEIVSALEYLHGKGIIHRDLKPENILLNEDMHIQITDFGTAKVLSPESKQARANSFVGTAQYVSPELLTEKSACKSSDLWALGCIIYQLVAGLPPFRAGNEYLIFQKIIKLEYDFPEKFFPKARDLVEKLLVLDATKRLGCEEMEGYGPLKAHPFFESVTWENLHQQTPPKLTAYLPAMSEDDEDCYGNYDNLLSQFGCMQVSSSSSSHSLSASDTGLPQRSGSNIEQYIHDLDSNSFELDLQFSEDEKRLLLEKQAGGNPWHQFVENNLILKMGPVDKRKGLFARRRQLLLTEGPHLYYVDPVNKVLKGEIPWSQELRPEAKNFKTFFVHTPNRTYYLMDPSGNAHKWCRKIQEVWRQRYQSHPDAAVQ


Key:
GST-PDK1 = target: T1, GST-PDK1; test: Thermal denaturation of PDK1 (TM50); type: biochemical; conditions: heated 2 min; no PIFtide
From the text: A further aspect of the invention provides the use of an interacting polypeptide as defined above, for example comprising the amino acid sequence Phe/Tyr-Xaa-Xaa-Phe/Tyr or an interacting compound of the invention in a method of stabilising a protein kinase having a hydrophobic pocket in the position equivalent to the hydrophobic pocket of Protein Kinase A (PKA) that is defined by residues including Lys76, Leu116, Val80 and/or Lys111 of full-length mouse PKA, wherein the protein kinase is exposed to the compound or polypeptide. Stabilisation may be measured by measuring the TM50 value. The TM50 value is the temperature at which heating for two minutes produces a 50% reduction in protein kinase activity (measured using any appropriate substrate) compared with the protein kinase activity before such heating, as described in Example 2. An increase in the TM50 value, for example by at least about 1, 2, 3, 4, 5, 6, 7, 8, 9, 10 or 15° C. indicates stabilisation.
FIG. 12. PDK1 is activated and stabilised through its interaction with PIFtide. (A) GST-PDK1 activity was measured in the presence of increasing concentrations of wild type (wt) PIFtide (closed circles) or a mutant D978A PIFtide (open circles) using the synthetic peptide substrate termed T308tide, as described in Material and Methods. The data was fitted to a hyperbola using the Kaleidagraph™ software. […]

S6K1[412E] = test: Activation of S6K1[412E] by PDK1 PIF pocket mutants; type: biochemical, human
Experimental: (§1) FIG. 20. Effect of PIFtide on the activation of S6K1 and SGK1 by PDK1 PIF pocket mutants (155A, 115A, 119A, 150A). GST-PDK1, GST-PDK1 L155E, 155A, 115A, 119A and 150A were tested for their ability to activate His-S6K1 412E and GST-SGK1 422D. The phosphorylation and activation of substrates was performed as described in FIG. 17. When PIFtide was included in the reaction, it was pre-incubated on ice for ˜15 min until the reaction was initiated with the addition of ATP-Mg.
(§2) Activation of AGC kinase PDK1 substrates. Phosphorylation reactions were carried out as above except that non-radioactive ATP replaced [γ-^32P]ATP. Following 10 min at 30° C., cocktail (30 μl) containing 50 mM Tris-HCl pH 7.5, 0.1% (by vol) 2-mercaptoethanol, 10 mM magnesium chloride, […], 0.5 μM microcystin-LR and 100 μM peptide substrate crosstide (GRPRTSSFAEG) and [γ-^32P]ATP (˜600 c.p.m./pmol). Reactions were stopped by the addition of 25 μl of 0.2 M EDTA pH 8.0, spotted onto P81 phosphocellulose paper, washed and analysed as described for the assay of MAP kinase. The amount of PDK1 was in the assay was varied so that the assay was in the linear range. One unit of activity is deficed as phosphorylation 1 nmol of substrate in 1 min.

SGK1[T422D] = test: Activation of SGK1[T422D] by PDK1 PIF pocket mutants; type: biochemical
Experimental: as §1, §2

Molecule | TM50 value (GST-PDK1) [°C] | rate of activation of S6K1[412E] compared with wild type PDK1 (S6K1[412E]) | rate of activation of SGK1[T422D] compared with wild type PDK1 (SGK1[T422D])
L155D: PDK1 mutant, Leu155 to Asp (protein, left off: small tags and cut ends, PDK1 mutant, Leu155 to Asp) MARTTSQLYDAVPIQSSVVLCSCPSPSMVRTQTESSTPPGIPGGSRQGPAMDGTAAEPRPGAGSLQHAQPPPQPRKKRPEDFKFGKILGEGSFSTVVLARELATSREYAIKILEKRHIIKENKVPYVTRERDVMSRLDHPFFVKLYFTFQDDEKDYFGLSYAKNGELLKYIRKIGSFDETCTRFYTAEIVSALEYLHGKGIIHRDLKPENILLNEDMHIQITDFGTAKVLSPESKQARANSFVGTAQYVSPELLTEKSACKSSDLWALGCIIYQLVAGLPPFRAGNEYLIFQKIIKLEYDFPEKFFPKARDLVEKLLVLDATKRLGCEEMEGYGPLKAHPFFESVTWENLHQQTPPKLTAYLPAMSEDDEDCYGNYDNLLSQFGCMQVSSSSSSHSLSASDTGLPQRSGSNIEQYIHDLDSNSFELDLQFSEDEKRLLLEKQAGGNPWHQFVENNLILKMGPVDKRKGLFARRRQLLLTEGPHLYYVDPVNKVLKGEIPWSQELRPEAKNFKTFFVHTPNRTYYLMDPSGNAHKWCRKIQEVWRQRYQSHPDAAVQ | 42 |  | 
Q150A: PDK1 mutant, Gln150 to Ala (protein, left off: small tags and cut ends, PDK1 mutant, Gln150 to Ala) MARTTSQLYDAVPIQSSVVLCSCPSPSMVRTQTESSTPPGIPGGSRQGPAMDGTAAEPRPGAGSLQHAQPPPQPRKKRPEDFKFGKILGEGSFSTVVLARELATSREYAIKILEKRHIIKENKVPYVTRERDVMSRLDHPFFVKLYFTFADDEKLYFGLSYAKNGELLKYIRKIGSFDETCTRFYTAEIVSALEYLHGKGIIHRDLKPENILLNEDMHIQITDFGTAKVLSPESKQARANSFVGTAQYVSPELLTEKSACKSSDLWALGCIIYQLVAGLPPFRAGNEYLIFQKIIKLEYDFPEKFFPKARDLVEKLLVLDATKRLGCEEMEGYGPLKAHPFFESVTWENLHQQTPPKLTAYLPAMSEDDEDCYGNYDNLLSQFGCMQVSSSSSSHSLSASDTGLPQRSGSNIEQYIHDLDSNSFELDLQFSEDEKRLLLEKQAGGNPWHQFVENNLILKMGPVDKRKGLFARRRQLLLTEGPHLYYVDPVNKVLKGEIPWSQELRPEAKNFKTFFVHTPNRTYYLMDPSGNAHKWCRKIQEVWRQRYQSHPDAAVQ |  | only marginally lower | markedly reduced
L155A: PDK1 mutant, Leu155 to Ala (protein, left off: a dimerising Fc or GST; small tags and cut ends, PDK1 mutant, Leu155 to Ala) MARTTSQLYDAVPIQSSVVLCSCPSPSMVRTQTESSTPPGIPGGSRQGPAMDGTAAEPRPGAGSLQHAQPPPQPRKKRPEDFKFGKILGEGSFSTVVLARELATSREYAIKILEKRHIIKENKVPYVTRERDVMSRLDHPFFVKLYFTFQDDEKAYFGLSYAKNGELLKYIRKIGSFDETCTRFYTAEIVSALEYLHGKGIIHRDLKPENILLNEDMHIQITDFGTAKVLSPESKQARANSFVGTAQYVSPELLTEKSACKSSDLWALGCIIYQLVAGLPPFRAGNEYLIFQKIIKLEYDFPEKFFPKARDLVEKLLVLDATKRLGCEEMEGYGPLKAHPFFESVTWENLHQQTPPKLTAYLPAMSEDDEDCYGNYDNLLSQFGCMQVSSSSSSHSLSASDTGLPQRSGSNIEQYIHDLDSNSFELDLQFSEDEKRLLLEKQAGGNPWHQFVENNLILKMGPVDKRKGLFARRRQLLLTEGPHLYYVDPVNKVLKGEIPWSQELRPEAKNFKTFFVHTPNRTYYLMDPSGNAHKWCRKIQEVWRQRYQSHPDAAVQ |  | only marginally lower | markedly reduced
I119A: PDK1 mutant, Ile119 to Ala (protein, left off: small tags and cut ends, PDK1 mutant, Ile119 to Ala) MARTTSQLYDAVPIQSSVVLCSCPSPSMVRTQTESSTPPGIPGGSRQGPAMDGTAAEPRPGAGSLQHAQPPPQPRKKRPEDFKFGKILGEGSFSTVVLARELATSREYAIKILEKRHIAKENKVPYVTRERDVMSRLDHPFFVKLYFTFQDDEKLYFGLSYAKNGELLKYIRKIGSFDETCTRFYTAEIVSALEYLHGKGIIHRDLKPENILLNEDMHIQITDFGTAKVLSPESKQARANSFVGTAQYVSPELLTEKSACKSSDLWALGCIIYQLVAGLPPFRAGNEYLIFQKIIKLEYDFPEKFFPKARDLVEKLLVLDATKRLGCEEMEGYGPLKAHPFFESVTWENLHQQTPPKLTAYLPAMSEDDEDCYGNYDNLLSQFGCMQVSSSSSSHSLSASDTGLPQRSGSNIEQYIHDLDSNSFELDLQFSEDEKRLLLEKQAGGNPWHQFVENNLILKMGPVDKRKGLFARRRQLLLTEGPHLYYVDPVNKVLKGEIPWSQELRPEAKNFKTFFVHTPNRTYYLMDPSGNAHKWCRKIQEVWRQRYQSHPDAAVQ |  | only marginally lower | markedly reduced
K115A: PDK1 mutant, Lys115 to Ala in the PIF-binding pocket (protein, left off: small tags and cut ends) MARTTSQLYDAVPIQSSVVLCSCPSPSMVRTQTESSTPPGIPGGSRQGPAMDGTAAEPRPGAGSLQHAQPPPQPRKKRPEDFKFGKILGEGSFSTVVLARELATSREYAIKILEARHIIKENKVPYVTRERDVMSRLDHPFFVKLYFTFQDDEKLYFGLSYAKNGELLKYIRKIGSFDETCTRFYTAEIVSALEYLHGKGIIHRDLKPENILLNEDMHIQITDFGTAKVLSPESKQARANSFVGTAQYVSPELLTEKSACKSSDLWALGCIIYQLVAGLPPFRAGNEYLIFQKIIKLEYDFPEKFFPKARDLVEKLLVLDATKRLGCEEMEGYGPLKAHPFFESVTWENLHQQTPPKLTAYLPAMSEDDEDCYGNYDNLLSQFGCMQVSSSSSSHSLSASDTGLPQRSGSNIEQYIHDLDSNSFELDLQFSEDEKRLLLEKQAGGNPWHQFVENNLILKMGPVDKRKGLFARRRQLLLTEGPHLYYVDPVNKVLKGEIPWSQELRPEAKNFKTFFVHTPNRTYYLMDPSGNAHKWCRKIQEVWRQRYQSHPDAAVQ |  | only marginally lower | markedly reduced

Source: patent US20080009025A1, “PROTEIN KINASE REGULATION” (priority 1999, published 2008)
